The target of this experiment is IL-2Rαβ (UniProt P01589). The experiment is described as follows: in vitro binding affinity against IL-2 as a standard (Example 2: SPR, Biacore T-100, receptor-Fc captured, EC50 of RU against concentration).
Sequence of UniProt P01589 (P01589 22-240 limits assumed): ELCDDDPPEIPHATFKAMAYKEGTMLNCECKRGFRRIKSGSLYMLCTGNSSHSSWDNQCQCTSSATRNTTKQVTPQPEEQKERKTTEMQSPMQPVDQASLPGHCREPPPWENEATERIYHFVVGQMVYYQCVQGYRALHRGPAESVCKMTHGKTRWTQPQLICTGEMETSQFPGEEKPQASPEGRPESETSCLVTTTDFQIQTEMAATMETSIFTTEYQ

As to “RSLAIL-2 (multiPEGylated recombinant human IL-2 with the aldesleukin sequence; composition of primarily 4-mers, 5-mers and 6-mers of releasably attached mPEG2-C2-fmoc-20kD) (from UniProt P60568 22-153) (ligand)”, the fold decrease in affinity relative to IL-2 amounted to 60 fold.

The values are drawn from patent publication US20190275133A1.
